The subject of series [1] is intracellular Ca2+ in cultured astrocytes. The series can be described thus: Ca2+ imaging of TFLLR-induced [Ca2+]i transient in cultured astrocytes. Format: cell-based, mouse. The settings on record: shRNA expressing astrocytes, sniffer patch, TFLLR. The method, then: The External solution was comprised of (in mM) 150 NaCl, 10 HEPES, 3 KCl, 2 CaCl2, 2 MgCl2, 5.5 glucose, at pH 7.3 (˜320 mOsm). For voltage clamp recordings, the internal solution contained 25 μg/ml gramicidin D and (in mM) 75 Cs2SO4, 10 NaCl, 0.1 CaCl2, and 10 HEPES, at pH 7.1 (˜310 mOsm). For current clamp recordings, the internal solution contained 25 μg/ml gramicidin D and (in mM) 75 K2SO4, 10 KCl, 0.1 CaCl2, and 10 HEPES, at pH 7.1 (˜310 mOsm). Pipette resistances ranged from 5 to 8 MΩ. For perforated patch clamp, it took 20 to 30 min to achieve acceptable perforation, with final series resistances ranging from 15 to 40 MΩ.
To test if activation of PAR1 by its specific agonist (e.g., TFLLR) causes any change in membrane conductance that might contribute to glutamate release from astrocytes, the whole cell currents and intracellular Ca^2+ responses in cultured astrocytes under gramicidin-D perforated patch configuration were simultaneously recorded (FIG. 1a). This technique minimized dialysis of intracellular ions.

Series [2] deals with T1, mBest1 (Mus musculus, UniProt O88870).
T1 sequence (O88870 1-551): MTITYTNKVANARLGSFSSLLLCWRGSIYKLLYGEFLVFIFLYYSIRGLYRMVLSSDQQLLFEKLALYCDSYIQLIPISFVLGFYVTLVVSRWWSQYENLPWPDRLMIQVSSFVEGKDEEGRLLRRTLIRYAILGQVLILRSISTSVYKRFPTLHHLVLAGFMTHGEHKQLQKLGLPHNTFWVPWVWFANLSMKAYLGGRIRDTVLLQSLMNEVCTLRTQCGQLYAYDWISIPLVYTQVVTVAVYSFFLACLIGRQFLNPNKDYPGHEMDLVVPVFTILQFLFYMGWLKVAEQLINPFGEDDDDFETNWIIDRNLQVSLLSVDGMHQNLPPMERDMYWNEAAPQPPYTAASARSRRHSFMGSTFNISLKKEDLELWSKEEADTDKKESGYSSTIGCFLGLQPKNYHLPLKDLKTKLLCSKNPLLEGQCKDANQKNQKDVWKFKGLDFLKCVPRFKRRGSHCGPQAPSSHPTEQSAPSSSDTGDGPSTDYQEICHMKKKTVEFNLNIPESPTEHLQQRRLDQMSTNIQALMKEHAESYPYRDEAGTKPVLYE
The series can be described thus: CAAC current in astrocytes expressing shRNA. More on the design: endogenous in cells; host or cells: cultured mouse cortical astrocytes. It is filed as cell-based. The method, then:
For plasmid-based shRNA expression, the following complementary oligonucleotides were annealed and inserted into the HindIII/BglII sites of pSUPER-GFP vector (Oligo Engine):
The efficacy of the construct to interfere with mBest1 expression was tested against heterologously expressed mBest1 in HEK293T cells (ATCC) by measuring specific CAAC currents. For lentivirus-based shRNA expression, lentiviral vector containing mBest1 gene was constructed by inserting synthetic double-strand oligonucleotides 5′-[…] […]-3′ (SEQ ID NO: 30) into pstI-XbaI restriction enzyme sites of shLenti2.4 CMV lentiviral vector (Macrogen) and verified by sequencing. Scrambled oligonucleotides inserted shLenti construct (Macrogen) was used as control. […]
Patch pipettes which have 3-6MΩ of resistance are filled with the standard intracellular solution. […] The concentration of free [Ca^2+]i in the solution was determined (Kuruma, A. & Hartzell, H. C. Bimodal control of a Ca(^2+)-activated Cl(−) channel by difference Ca(^2+) signals. J Gen Physiol 115, 59-80 (2000), which is hereby incorporated by reference for all purposes as if fully set forth herein). […]

Series [3] deals with T1, mBest1. In words: Whole cell patch clamp of mBest1-expressing HEK293T cells. More on the design: the full-length mBest1 was cloned from both astrocyte and testis cDNAs and transiently expressed in HEK293T cells; expressed in transfected cells; host or cells: HEK293T cells (ATCC). Format: cell-based. The settings on record: HEK293T cells transfected with mBest1 cDNA. How it is done:
In order to express mBest1 in mammalian cells, an mBest1 full-length fragment from pGEM-T easy plasmid (6.65 kb, Promega) was subcloned into pcDNA 3.1 (Invitrogen) by HindIII site and NotI site. The plasmid constructs were transfected into HEK293T cells (ATCC) using Effectene transfection reagent (Qiagen). To carry out whole cell patch clamp recordings, 1.5˜2 μg of plasmid, which was obtained by cloning mBest1 in cDNA extracted from mouse brain or cultured astrocytes, and then, subcloning into pcDNA3.1 plasmid (Invitrogen), plus pEGFP-N1 (Clontech) were used to transfect one 35 mm culture dish. One day after transfection, cells were replated onto glass coverslips for electrophysiological recording. Transfected cells were identified by EGFP fluorescence and used for patch clamp experiments within 24-36 hrs.
Patch pipettes which have 3-6MΩ of resistance are filled with the standard intracellular solution. Current voltage curves were established by applying 100- or 200-ms-duration voltage ramps from −100 to +100 mV. The ramp duration was 10 s. […] The concentration of free [Ca^2+]i in the solution was determined (Kuruma, A. & Hartzell, H. C. Bimodal control of a Ca(^2+)-activated Cl(−) channel by difference Ca(^2+) signals. J Gen Physiol 115, 59-80 (2000), which is hereby incorporated by reference for all purposes as if fully set forth herein). […]

B1: mBest1 shRNA: mBest1-specific short hairpin RNA, SEQ ID NO: 3 and 4 (lentiviral: SEQ ID NO: 30), nucleotides 563-582 of mBest1 (nucleic acid)
chain 1: GATCCCCTTGCCAACTTGTCAATGAATTCAAGAGATTCATTGACAAGTTGGCAATTTTTA
chain 2: GGGAACGGTTGAACAGTTACTTAAGTTCTCTAAGTAACTGTTCAACCGTTAAAAATTCGA
Regarding B1, the “increase in astrocytic intracellular Ca2+” value in series [1] is “unaffected”. In the series with mBest1 [2], the “CAAC current in astrocyte” value amounted to 49.7±8.3 pA. Also, the “knock-down of mBest1 channel” value with mBest1 [3] is “specific and efficient knock-down”.
